This experiment deals with folate binding protein (FBP) (UniProt P15328). The experiment in a line: cell-based or functional assay.
Chain of UniProt P15328 (P15328 25-234 limits assumed): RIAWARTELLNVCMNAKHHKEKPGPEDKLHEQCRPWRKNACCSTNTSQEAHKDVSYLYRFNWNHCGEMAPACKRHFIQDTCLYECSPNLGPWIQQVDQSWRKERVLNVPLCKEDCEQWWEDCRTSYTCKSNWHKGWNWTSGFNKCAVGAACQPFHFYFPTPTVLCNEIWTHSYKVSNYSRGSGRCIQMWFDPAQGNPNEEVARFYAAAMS

Consider MOv-γ chimeric receptor, for which the IFN-γ secretion (pg/ml) of MOv-γ transduced mouse T cells in response to 24JK-FBP cells (parental 24JK: 0; non-transduced T cells: 0) worked out at 5200 pg/mL, the IFN-γ secretion (pg/ml) of MOv-γ transduced mouse T cells in response to IGROV (ovarian FBP +) cells (non-transduced T cells: 0) turned out to be 37500 pg/mL and the share of MOv-γ transduced human T cell clones (patient 410) reactive against the ovarian cancer target was 67 % of clones.

For the origin of these results see patent publication US7723111.
